Measured values published in paper doi:10.1101/2020.11.17.387225.

Key:
[1] = molecular target: EccB5 (Mycobacterium xenopi); experiment: cryo-EM structure
[2] = molecular target: EccD5 (Mycobacterium xenopi); experiment: cryo-EM structure

Row | Substance | stoichiometry N [1] | stoichiometry N [2]
1 | EccB5 (natural protein) | 6 | 
2 | EccD5 (natural protein) |  | 2
